Laboratory results: publication PMC5571166, “Mapping the key residues of SufB and SufD essential for biosynthesis of iron-sulfur clusters” (Scientific Reports, 2017)
Changes are numbered by the printed parent chain. Values belong to the binder of their own block, whether it stands above or below them.

Key:
Assay in all cases: SEC; SufBCD complexes co-expressed in E. coli and co-purified on Phenyl FF, Q XL and Sephacryl S-200; eluted from gel filtration at about 160 kDa; subunit composition checked by SDS-PAGE of the purified sample
Details in all cases: both partners purified
SufB (wild type) = molecular target: T1, SufB (wild type) (Escherichia coli, UniProt P77522 1-495)
T1 construct: SufB of the Escherichia coli sufABCDSE operon; Expressed from the cloned suf genes with no tag mentioned; The host is stated only for the variant complexes (YT2512, pGSO164-derived plasmid); One SufB per SufBCD complex (SufB:SufC:SufD 1:2:1); also called SufB subunit of the wild-type SufBCD complex; source: purified as the wild-type SufBCD complex; E. coli YT2512 (ΔsufABCDSE) from pBBR-sufAB, in …
T1 sequence: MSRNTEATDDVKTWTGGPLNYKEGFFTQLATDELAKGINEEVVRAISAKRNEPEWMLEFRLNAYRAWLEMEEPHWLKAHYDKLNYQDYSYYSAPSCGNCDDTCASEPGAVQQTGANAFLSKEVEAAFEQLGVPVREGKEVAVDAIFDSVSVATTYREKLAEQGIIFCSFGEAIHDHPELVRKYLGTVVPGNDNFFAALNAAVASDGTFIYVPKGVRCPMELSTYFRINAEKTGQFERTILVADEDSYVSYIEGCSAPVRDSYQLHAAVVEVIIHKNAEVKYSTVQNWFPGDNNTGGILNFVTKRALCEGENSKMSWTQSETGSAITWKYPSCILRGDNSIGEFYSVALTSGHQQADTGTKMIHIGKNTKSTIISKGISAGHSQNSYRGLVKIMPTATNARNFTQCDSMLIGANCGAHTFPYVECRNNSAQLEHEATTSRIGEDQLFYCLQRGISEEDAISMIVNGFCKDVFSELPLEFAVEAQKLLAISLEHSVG

SufB^Q285A = molecular target: T2, SufB^Q285A (Escherichia coli, UniProt P77522 1-495, SufB^Q285A)
T2 construct: SufB of the Escherichia coli sufABCDSE operon; source: pBBR-sufAB carrying the mutation, in bacterial extract
T2 sequence: T1 sequence with Q285A

SufB^R226A = molecular target: T3, SufB^R226A (Escherichia coli, UniProt P77522 1-495, SufB^R226A)
T3 construct: SufB of the Escherichia coli sufABCDSE operon
T3 sequence: T1 sequence with R226A

SufB^K303A = molecular target: T4, SufB^K303A (Escherichia coli, UniProt P77522 1-495, SufB^K303A)
T4 construct: SufB of the Escherichia coli sufABCDSE operon
T4 sequence: T1 sequence with K303A

binding result (SufB (wild type)): binds
binding result (SufB^Q285A): binds
binding result (SufB^R226A): binds
binding result (SufB^K303A): binds
B1: SufC (natural protein, Escherichia coli)
chain: MLSIKDLHVSVEDKAILRGLSLDVHPGEVHAIMGPNGSGKSTLSATLAGREDYEVTGGTVEFKGKDLLALSPEDRAGEGIFMAFQYPVEIPGVSNQFFLQTALNAVRSYRGQETLDRFDFQDLMEEKIALLKMPEDLLTRSVNVGFSGGEKKRNDILQMAVLEPELCILDESDSGLDIDALKVVADGVNSLRDGKRSFIIVTHYQRILDYIKPDYVHVLYQGRIVKSGDFTLVKQLEEQGYGWLTEQQ
notes: SufC of the Escherichia coli sufABCDSE operon; also called SufC subunit of the SufBCD complex

binding result (SufB (wild type)): binds
binding result (SufB^Q285A): binds
binding result (SufB^R226A): binds
binding result (SufB^K303A): binds
B2: SufD (natural protein, Escherichia coli)
chain: MAGLPNSSNALQQWHHLFEAEGTKRSPQAQQHLQQLLRTGLPTRKHENWKYTPLEGLINSQFVSIAGEISPQQRDALALTLDSVRLVFVDGRYVPALSDATEGSGYEVSINDDRQGLPDAIQAEVFLHLTESLAQSVTHIAVKRGQRPAKPLLLMHITQGVAGEEVNTAHYRHHLDLAEGAEATVIEHFVSLNDARHFTGARFTINVAANAHLQHIKLAFENPLSHHFAHNDLLLAEDATAFSHSFLLGGAVLRHNTSTQLNGENSTLRINSLAMPVKNEVCDTRTWLEHNKGFCNSRQLHKTIVSDKGRAVFNGLINVAQHAIKTDGQMTNNNLLMGKLAEVDTKPQLEIYADDVKCSHGATVGRIDDEQIFYLRSRGINQQDAQQMIIYAFAAELTEALRDEGLKQQVLARIGQRLPGGAR
notes: SufD of the Escherichia coli sufABCDSE operon; One SufD per SufBCD complex (1:2:1); also called SufD subunit of the SufBCD complex
